Data set [1] concerns the target T1, human eIF4E (Homo sapiens, UniProt P06730 1-217). Kind of data set: EMSA; EMSA: 10 mM HEPES pH 7.5, 20 mM KCl, 1 mM DTT, 3 mM MgCl2, 1 ug/uL tRNA, 0.5 ug/uL BSA, 1 U/uL RNaseOUT, 5% glycerol, 10 uL, 25 min on ice, gel at 4 C; SHAPE: benzoyl cyanide, 22 C. As to conditions: protein: recombinant; label: 32P; pseudoknot between C and G domains. In general terms: A gel shift assay detects complexes by their altered migration in electrophoresis.

Data set [2] addresses T1, human eIF4E. Kind of data set: EMSA; text: not shifted by 2 uM; EMSA: 10 mM HEPES pH 7.5, 20 mM KCl, 1 mM DTT, 3 mM MgCl2, 1 ug/uL tRNA, 0.5 ug/uL BSA, 1 U/uL RNaseOUT, 5% glycerol, 10 uL, 25 min on ice, gel at 4 C; SHAPE: benzoyl cyanide, 22 C. The following applies: protein: recombinant; label: 32P; pseudoknot between C and G domains; three bands without protein.

In publication PMC6471432, “The 3′ Untranslated Region of a Plant Viral RNA Directs Efficient Cap-Independent Translation in Plant and Mammalian Systems” one finds Kd data, which are given here for four molecules.

T1 sequence (P06730 whole entry): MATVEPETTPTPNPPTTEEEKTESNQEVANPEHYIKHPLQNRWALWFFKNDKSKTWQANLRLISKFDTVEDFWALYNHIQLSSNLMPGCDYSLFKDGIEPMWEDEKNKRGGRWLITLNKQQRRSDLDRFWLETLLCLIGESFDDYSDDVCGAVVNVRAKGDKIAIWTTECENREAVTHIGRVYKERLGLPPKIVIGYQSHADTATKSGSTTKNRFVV

B1: PEMV2 PTE capped (structured_RNA)
RNA: GUAGUGGUAGAACACGUGGGAUAGGGGAUGACCUUGUCGACCGGUUAUCGGUCCCCUGCUCCUUCGAGCUGGCAAGGCGCUCACAGGUUCUACACUGCUACUA
modifications: 5' cap
Broadly, the Kd is a measure of binding affinity in units of concentration. B1: the equilibrium dissociation constant (Kd) with human eIF4E [1] was 285 ± 33 nM.

B2: PEMV2 PTE uncapped (structured_RNA)
RNA: GUAGUGGUAGAACACGUGGGAUAGGGGAUGACCUUGUCGACCGGUUAUCGGUCCCCUGCUCCUUCGAGCUGGCAAGGCGCUCACAGGUUCUACACUGCUACUA
Regarding B2, the Kd with human eIF4E [2] turned out to be 2520 ± 435 nM.

B3: TPAV PTE capped (structured_RNA)
RNA: GGACAAGACCCCAGGCGGGACGCCACACCCAUGUUUGCAGACAUGGCCCGAGGAAACUCUGGUGUGGGCUGGGGGGAAUCC
modifications: 5' cap
For the molecule B3, the dissociation constant (Kd) with human eIF4E [1] worked out at 160 ± 1 nM.

B4: TPAV PTE uncapped (structured_RNA)
RNA: GGACAAGACCCCAGGCGGGACGCCACACCCAUGUUUGCAGACAUGGCCCGAGGAAACUCUGGUGUGGGCUGGGGGGAAUCC
Regarding B4, the Kd with human eIF4E [1] was determined as 838 ± 124 nM.
